{"source": "patent US20240288446A1", "about": "“METHOD FOR DIAGNOSING FIBRINOLYTIC INSUFFICIENCY RELATED TO NEUTROPHIL EXTRACELLULAR TRAPS” (Hôpitaux Universitaires de Strasbourg, priority 2019, published 2024)", "molecules": {"B1": {"name": "purified plasminogen: Human Glu-plasminogen, purified, over 99% pure; 92-kDa single-chain proenzyme (SEQ ID NO 1) (protein, listed as Homo sapiens)", "chain": "EPLDDYVNTQGASLFSVTKKQLGAGSIEECAAKCEEDEEFTCRAFQYHSKEQQCVIMAENRKSSIIIRMRDVVLFEKKVYLSECKTGNGKNYRGTMSKTKNGITCQKWSSTSPHRPRFSPATHPSEGLEENYCRNPDNDPQGPWCYTTDPEKRYDYCDILECEEECMHCSGENYDGKISKTMSGLECQAWDSQSPHAHGYIPSKFPNKNLKKNYCRNPDRELRPWCFTTDPNKRWELCDIPRCTTPPPSSGPTYQCLKGTGENYRGNVAVTVSGHTCQHWSAQTPHTHNRTPENFPCKNLDENYCRNPDGKRAPWCHTTNSQVRWEYCKIPSCDSSPVSTEQLAPTAPPELTPVVQDCYHGDGQSYRGTSSTTTTGKKCQSWSSMTPHRHQKTPENYPNAGLTMNYCRNPDADKGPWCFTTDPSVRWEYCNLKKCSGTEASVVAPPPVVLLPDVETPSEEDCMFGNGKGYRGKRATTVTGTPCQDWAAQEPHRHSIFTPETNPRAGLEKNYCRNPDGDVGGPWCYTTNPRKLYDYCDVPQCAAPSFDCGKPQVEPKKCPGRVVGGCVAHPHSWPWQVSLRTRFGMHFCGGTLISPEWVLTAAHCLEKSPRPSSYKVILGAHQEVNLEPHVQEIEVSRLFLEPTRKDIALLKLSSPAVITDKVIPACLPSPNYVVADRTECFITGWGETQGTFGAGLLKEAQLPVIENKVCNRYEFLNGRVQSTELCAGHLAGGTDSCQGDSGGPLVCFEKDKYILQGVTSWGLGCARPNKPGVYVRVSRFVTWIEGVMRNN"}}, "test_system": "septic shock plasma euglobulin fraction on fibrin-bound tPA", "assay": "Plasmin formation on tPA-fibrin surfaces from euglobulin fraction of septic shock plasma supplemented with plasminogen", "format": "biochemical, human", "conditions": "plasminogen normalized to 1.5 μM", "procedure": "FIG. 5 represents the Fibrinolytic activity of plasma isolated from septic shock. The fibrinolytic activity of plasma was tested by incubating the corresponding euglobulin fraction with fibrin surfaces to which tPA (50 iu/ml) was previously bound. The euglobulin fraction contains plasminogen and plasminogen fragments bearing K1, K4 and K5 as identified by mass spectrometry (see text and Supplemental file). The amount of plasmin formed was quantified by measuring the change in absorbance at A405 nm using a chromogenic substrate selective for plasmin as indicated in FIG. 3. […]\nPlasminogen was quantified with a functional activity assay as described with modifications.(41) Briefly, plasmas were diluted 1:50 in assay buffer (Phosphate 80 mM, NaCl 50 mM, BSA 2 mg/ml), supplemented with 75 i.u./ml urokinase, 1 mM tranexamic acid and 0.75 mM of the plasmin-selective chromogenic substrate in a final volume of 50 μl. […] Plasminogen fragments present in plasma were initially detected by Western blot as indicated above. […] Plasmin formation on fibrin matrices was measured using the euglobulin fraction from healthy control and patient plasmas as source of plasminogen as indicated above. […] Kinetics of plasminogen transformation into plasmin was followed during 1 h by measuring the release of pNA at A405 nm and the initial velocity of the reactions were calculated as indicated above. […]", "data": [{"molecule": "B1", "values": [{"measurement": "amount of plasmin formed after plasminogen supplementation", "setting": "plasma samples S1, S3, S5", "result": "increased with a trend to normality"}, {"measurement": "amount of plasmin formed after plasminogen supplementation", "setting": "plasma samples S2, S4, S6", "result": "insufficient or scant response"}]}]}
